Data set [1] concerns Human immunodeficiency virus type 1 protease (Human immunodeficiency virus 1), Q72874 [L10I,L63P,A71V,G73S,I84V,L90M]. The settings on record: 1 to 180 uM.
Data set [2] has as its target Protease (Human immunodeficiency virus 1) (UniProt Q9YQ12). As to conditions: 1 to 180 uM.
The test system of data set [3] is O=C1c2cccc([N+](=O)[O-])c2C(=O)N1c1ccc2[nH]c(=S)sc2c1. The settings on record: Human immunodeficiency virus 1; 150 uM.
The test system is the same in data set [4]. The settings on record: Human immunodeficiency virus 1; 100 uM.
Data set [5] has the same test system. As to conditions: Human immunodeficiency virus 1; 150 uM. The source holds these as a separate data set.
The test system is the same in data set [6]. The settings on record: Human immunodeficiency virus 1; 100 uM. This is another data set of the same source.
The test system is the same in data set [7]. As to conditions: Human immunodeficiency virus 1; 100 uM. The source holds these as a separate data set.
The test system is the same in data set [8]. The settings on record: Human immunodeficiency virus 1; 100 uM. This is another data set of the same source.
For data set [9] the test system is unchanged. As to conditions: Human immunodeficiency virus 1; 150 uM. The source holds these as a separate data set.
The test system is the same in data set [10]. As to conditions: Human immunodeficiency virus 1; 150 uM. This is another data set of the same source.

Activity calls are given as the source filed them. No cut-off for these calls is given here.

`O=C1c2cccc([N+](=O)[O-])c2C(=O)N1c1ccc2[nH]c(=S)sc2c1`: the inhibition result in data set [1] and in data set [2] was “inactive” in each case.

A word on the Vmax: it is the rate approached at saturating substrate. As a reminder, the Km is the substrate concentration at which the rate is half of its maximum. For the compound “Human immunodeficiency virus type 1 protease (Human immunodeficiency virus 1), Q72874 L10I,L63P,A71V,G73S,I84V,L90M”, the Vmax in data set [3] and in [6] was 30 nM/s throughout. Further, the Km turned out to be 246 µM in [4] and 359 µM in data set [5].

Consider “Protease (Human immunodeficiency virus 1), Q9YQ12”, for which the Km stood at 144 µM in data set [7] and 184 µM in data set [10]. Besides, the Vmax in data set [8] worked out at 35 nM/s; in data set [9], 34 nM/s.

The values above are taken from ChEMBL document CHEMBL3392998.
